Here are results for one molecule from patent US8198236B2, “Methods and compositions for the treatment of cancer” (Washington University, priority 2007, dated 2012).

For test [1], the target named is T1, LRP6 (Homo sapiens, UniProt O75581).
T1 construct: expressed in transfected cells; host or cells: human HT1080 cells, retroviral vector pLNCX2
The test is described as follows: LRP6-mediated 125I-Mesd degradation in LRP6-transduced HT1080 cells. Type of test: cell-based. Particulars: 4 hours at 37° C. On the procedure:
Ligand degradation was performed using the methods as described in Li, Y., et al., J. Biol. Chem. 275: 17187-17194, 2000. Briefly, 2×10^5 cells were seeded into 12-well dishes 1 day prior to assay. Pre-warmed assay buffer (minimal Eagle's medium containing 0.6% BSA with radioligand, 0.6 ml/well) was added to cell monolayers in the absence or the presence of unlabeled 500 nM RAP or 500 nM Mesd, followed by incubation for 4 hours at 37° C. Thereafter, the medium overlying the cell monolayers was removed and proteins were precipitated by addition of BSA to 10 mg/ml and trichloroacetic acid to 20%. Degradation of radioligand was defined as the appearance of radioactive fragments in the overlying medium that were soluble in 20% trichloroacetic acid. Kinetic analysis of endocytosis LRP6-transduced HT1080 cells were plated in 12-well plates at a density of 2×10^5 cells/well and used after overnight culture. Cells were rinsed twice in ice-cold assay buffer (minimal Eagle's medium containing 0.6% BSA), and ^125I-anti-HA IgG was added at 1 nM final concentration in cold assay buffer (0.5 ml/well). The binding of ^125I-anti-HA IgG was carried out at 4° C. for 90 minutes with gentle rocking Unbound ^125I-anti-HA IgG was removed by washing cell monolayers three times with cold assay buffer. Ice-cold stop/strip solution (0.2 M acetic acid, pH 2.6, 0.1 M NaCl) was added to one set of plates without warming up and kept on ice. The remaining plates were then placed in a 37° C. water bath and 0.5 ml assay buffer prewarmed to 37° C. was quickly added to cell monolayers to initiate internalization. After each time point, the plates were quickly placed on ice and the assay buffer was replaced with cold stop/strip solution. ^125I-anti-HA IgG that remained on the cell surface was stripped by incubation of cell monolayers with cold stop/strip solution for a total of 20 minutes (0.75 ml for 10 minutes, twice) and counted. Cell monolayers were then solubilized with low-SDS lysis buffer and counted. […] The fraction of internalized ^125I-anti-HA IgG after each time point was calculated and plotted. […]

The subject of test [2] is cytosolic β-catenin. The test can be described thus: Cytosolic β-catenin level by western blotting in LRP6-transduced HT1080 cells. Particulars: 0.5 to 5 nM Mesd, 2 hours at 37° C. Type of test: cell-based, human. On the procedure:
[…] After washing in ice-cold PBS, cells were collected and homogenized in a glass Dounce homogenizer in buffer consisting of 100 mM Tris-HCl pH 7.4, 140 mM NaCl, 2 mM DTT, 2 mM PMSF, and 1× Complete™ protease inhibitors (500 μl/well). The homogenate was centrifuged for 10 minutes at 500 g, and the supernatant was further centrifuged at 100,000 g at 4° C. for 90 minutes. The resulting supernatant was designated the cytosolic fraction. The β-catenin levels were then examined by western blotting using β-catenin-specific antibody from Cell Signaling Technology. The immunoreactive proteins were detected using the ECL™ system (Amersham). Films showing immunoreactive bands were scanned with a Kodak Digital Science DC 120 Zoom Digital Camera and band intensities were analyzed with Kodak Digital Science1D Image Analysis Software.
β-catenin is a key molecule in the Wnt/β-catenin signaling pathway. A cytosolic pool of β-catenin interacts with DNA-binding proteins and participates in Wnt signal transduction (Hinck, L., J. Cell Biol. 125: 1327-1340, 1994; Gottardi, C. J., J. Cell Biol. 153: 1049-1060, 2001; Klingelhofer, J., et al., Oncogene 22: 1181-1188, 2003). To determine whether Mesd binding to cell surface LRP6 directly regulates Wnt signaling, we studied the effects of Mesd binding on cytosolic β-catenin levels in HT1080-LRP6 cells. […]

T1 sequence (O75581 20-1613): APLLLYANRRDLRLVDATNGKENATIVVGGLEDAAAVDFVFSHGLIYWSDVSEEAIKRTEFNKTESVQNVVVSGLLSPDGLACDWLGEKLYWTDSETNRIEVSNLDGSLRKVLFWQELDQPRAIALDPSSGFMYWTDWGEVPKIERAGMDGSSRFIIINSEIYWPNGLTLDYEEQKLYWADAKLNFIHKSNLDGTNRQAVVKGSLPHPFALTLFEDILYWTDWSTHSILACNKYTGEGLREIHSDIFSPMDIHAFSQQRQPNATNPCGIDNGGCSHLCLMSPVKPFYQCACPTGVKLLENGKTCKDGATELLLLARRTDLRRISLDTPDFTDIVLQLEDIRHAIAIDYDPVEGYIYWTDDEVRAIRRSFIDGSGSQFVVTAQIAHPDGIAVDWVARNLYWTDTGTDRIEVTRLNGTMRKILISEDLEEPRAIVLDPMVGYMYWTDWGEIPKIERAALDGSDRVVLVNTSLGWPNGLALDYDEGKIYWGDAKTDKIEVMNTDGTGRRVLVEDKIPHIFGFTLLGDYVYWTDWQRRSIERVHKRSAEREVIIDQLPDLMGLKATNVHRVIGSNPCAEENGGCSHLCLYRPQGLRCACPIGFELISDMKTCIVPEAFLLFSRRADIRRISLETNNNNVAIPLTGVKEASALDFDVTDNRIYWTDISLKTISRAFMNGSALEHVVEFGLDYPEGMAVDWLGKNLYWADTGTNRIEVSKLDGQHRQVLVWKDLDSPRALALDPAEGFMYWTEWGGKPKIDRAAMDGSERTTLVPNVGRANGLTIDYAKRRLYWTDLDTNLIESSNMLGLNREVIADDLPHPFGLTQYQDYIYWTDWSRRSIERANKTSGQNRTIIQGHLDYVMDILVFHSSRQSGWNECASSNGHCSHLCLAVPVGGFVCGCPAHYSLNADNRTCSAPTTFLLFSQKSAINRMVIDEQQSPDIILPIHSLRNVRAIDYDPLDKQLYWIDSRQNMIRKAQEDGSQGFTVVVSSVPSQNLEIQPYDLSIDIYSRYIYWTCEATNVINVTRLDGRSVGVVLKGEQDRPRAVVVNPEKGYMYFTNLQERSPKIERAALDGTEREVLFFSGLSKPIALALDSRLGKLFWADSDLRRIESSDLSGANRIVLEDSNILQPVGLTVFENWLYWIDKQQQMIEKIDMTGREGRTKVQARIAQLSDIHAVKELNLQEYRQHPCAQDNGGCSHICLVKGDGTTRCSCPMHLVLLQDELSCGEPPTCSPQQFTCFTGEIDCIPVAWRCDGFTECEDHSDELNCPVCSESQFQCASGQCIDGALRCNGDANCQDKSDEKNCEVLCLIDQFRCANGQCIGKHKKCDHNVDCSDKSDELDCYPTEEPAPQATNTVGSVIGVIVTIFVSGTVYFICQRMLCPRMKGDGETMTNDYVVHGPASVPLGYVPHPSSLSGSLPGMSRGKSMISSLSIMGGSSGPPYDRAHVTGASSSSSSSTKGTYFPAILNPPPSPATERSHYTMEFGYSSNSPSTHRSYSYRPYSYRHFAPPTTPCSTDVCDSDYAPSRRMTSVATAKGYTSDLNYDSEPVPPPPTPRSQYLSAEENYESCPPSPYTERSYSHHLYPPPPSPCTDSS

B1: Mesd: Recombinant full-length mouse Mesd expressed in E. coli, N-terminal polyhistidine tail, lacking the signal peptide (protein)
chain: ADTPGEATPPPRKKKDIRDYNDADMARLLEQWEKDDDIEEGDLPEHKRPSAPIDFSKLDPGKPESILKMTKKGKTLMMFVTVSGNPTEKETEEITSLWQGSLFNANYDVQRFIVGSDRAIFMLRDGSYAWEIKDFLVSQDRCAEVTLEGQMYPGKGGGSKEKNKTKPEKAKKKEGDRKPRASKEDNRAGSRREDL
modifications: left off: small tags and cut ends
notes: Recombinant full-length mouse Mesd expressed in E. coli, N-terminal polyhistidine tail, lacking the signal peptide
Molecule B1 came in with a 125I-Mesd degradation in test [1] (5 nM) of 320 fmoles/mg cell protein. Also, the “Inhibition of 125I-Mesd degradation” value in test [1] (500 nM unlabeled competitor) was “completely”. Further, the “Change in cytosolic β-catenin levels” value in test [2] is reported as “no significant change”.
